From patent US20150315289A1 come the findings set out here.

pEC50: −log10 of the molar value.

Test [1] addresses human MUC5AC (native mucin) (human) (UniProt P98088). Description: sandwich EIA: hPAM4 capture of antigen from CPM1, murine MAb probe at 10 µg/mL.
For test [2] the target is unchanged. Description: inhibition EIA on CPM1-coated plates; competitor hPAM4 at […].
Test [3] has the same target. As to the kind of experiment: ELISA on target mucin antigen. On the technique in general: In an ELISA, binding on a coated surface is turned into a signal by an enzyme label.
Test [4] has the same target. As to the kind of experiment: elution analysis of 111In-IMP-288/TF10 with excess mucin.
Test [5] has the same target. As to the kind of experiment: binding of radioiodinated TF10 to MUC5AC (not shown).
Test [6] deals with IMP-288 di-HSG hapten-peptide. As to the kind of experiment: elution analysis of radiolabeled peptide with TF10 (not shown).

As a reminder, the Kd is a measure of binding affinity in units of concentration. Read a low Kd as higher affinity. “45M1 anti-MUC5AC mouse monoclonal antibody” had a Kd in test [1] of 14.3 µg/mL. This substance yielded an ICmax (maximal inhibition) in test [2] of 25.5%.
Usually pEC50 stands for the EC50 on a negative log10 scale, so that one unit is a factor of ten. On to PAM4-F(ab′)2, for which the pEC50 in test [3] is 8.74.
Turning to “TF10 bispecific ([hPAM4]2 x h679) DNL construct (bispecific antibody)”, in test [4], the percent of TF10-bound 111In-IMP-288 eluting at higher molecular weight with excess mucin was determined as 92%. The same substance came in with an immunoreactive fraction in test [5] of 87%. This substance had a percent of 111In-IMP-288 bound in test [6] of 90%.
